The labels stand for the following.
B1: Basigin (Homo sapiens), P35613 (parent)
chain: MAAALFVLLGFALLGTHGASGAAGFVQAPLSQQRWVGGSVELHCEAVGSPVPEIQWWFEGQGPNDTCSQLWDGARLDRVHIHATYHQHAASTISIDTLVEEDTGTYECRASNDPDRNHLTRAPRVKWVRAQAVVLVLEPGTVFTTVEDLGSKILLTCSLNDSATEVTGHRWLKGGVVLKEDALPGQKTEFKVDSDDQWGEYSCVFLPEPMGTANIQLHGPPRVKAVKSSEHINEGETAMLVCKSESVPPVTDWAWYKITDSEDKALMNGSESRFFVSSSQGRSELHIENLNMEADPGQYRCNGTSSKGSDQAIITLRVRSHLAALWPFLGIVAEVLVLVTIIFIYEKRRKPEDVLDDDDAGSAPLKSSGQHQNDKGKNVRQRNSS
partner: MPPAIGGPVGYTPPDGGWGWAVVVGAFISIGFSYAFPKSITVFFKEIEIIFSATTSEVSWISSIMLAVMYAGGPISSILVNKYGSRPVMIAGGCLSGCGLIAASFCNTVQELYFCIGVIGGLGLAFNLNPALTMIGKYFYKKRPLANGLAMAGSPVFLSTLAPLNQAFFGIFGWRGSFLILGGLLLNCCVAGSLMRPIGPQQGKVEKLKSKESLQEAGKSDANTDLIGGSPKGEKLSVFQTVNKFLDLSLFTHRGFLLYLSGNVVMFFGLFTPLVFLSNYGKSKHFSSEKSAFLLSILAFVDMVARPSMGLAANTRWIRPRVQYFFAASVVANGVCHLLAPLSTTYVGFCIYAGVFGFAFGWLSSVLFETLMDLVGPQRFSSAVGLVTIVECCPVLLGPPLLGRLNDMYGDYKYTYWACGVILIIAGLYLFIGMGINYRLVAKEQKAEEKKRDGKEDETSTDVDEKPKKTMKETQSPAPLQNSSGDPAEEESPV
B2: Monocarboxylate transporter 1 (Rattus norvegicus (Rat)), P53987 (parent)
chain: B1 partner

Variants of B1 are the subject of assay [1]. The settings on record: with mot1_rat Slc16a1, P53987.
The variants in assay [2] derive from B1. The settings on record: with mot1_rat Slc16a1, P53987. The source holds these as a separate data set.
In assay [3] the parent is B2. The settings on record: with basi_human BSG.
The variants in assay [4] derive from B2. The settings on record: with basi_human BSG. The source holds these as a separate data set.

As to E334R, the “effect of a mutation on the interaction” value with mot1_rat Slc16a1, P53987 [1] is “decreasing interaction strength”.
On to E334Q, for which the “effect of a mutation on the interaction” value is recorded as “decreasing interaction strength” with mot1_rat Slc16a1, P53987 [1] and “with no effect” with mot1_rat Slc16a1, P53987 [2].
For the variant R196E, the “effect of a mutation on the interaction” value with basi_human BSG, P35613 [3] was “disrupting interaction strength”.
Take R86E: the “effect of a mutation on the interaction” value with basi_human BSG, P35613 [3] is listed as “with no effect”; in the assay with basi_human BSG, P35613 [4], “decreasing interaction strength”.
The matching figures for R86Q: “with no effect” and “decreasing interaction strength”.

The values are drawn from IntAct's records for PubMed 17127621.
